Test results from the DeepSol protein solubility set.

Test: soluble on expression in E. coli; label from the status in PepcDB or PDB records

Soluble on expression in E. coli, not soluble:
MGSDKIHHHHHHMFKNVSWKLKEHSELKKYGIDHNILLDVVSRERRKIYFDYWKNLPKLVTSSLGLKFTDGTPVDALYEVFIEGIYDVDGFRPKMGDVVVDVGANYGDSSIWWAKKKFGAKVIAFEPLADVFHELEKNIRINHADVIAYNVALGNGNFINGSKQGNMFVAGGQAKIQTSRLDDYTFDRLDLLKIDVEGFEHDVLLGARSTISKFKPKIIIETHSVALRKLCHEFLISLGYSLSLEGRTIRAHSPGMDKVTNLFYSPII, MGSDKIHHHHHHMFRLQFRLFPPLRTAMHILLTALLKCLSLLPLSCLHTLGNRLGHLAFYLLKEDRARIVANMRQAGMNPDPKTVKAVFAETAKGGLELAPAFFRKPEDIETMFKAVHGWEHVQQALDKHEGLLFITPHIGSYDLGGRYISQQLPFPLTAMYKPPKIKAIDKIMQAGRVRGKGKTAPTSIQGVKQIIKALRSGEATIVLPDHVPSPQEGGEGVWVDFFGKPAYTMTLAAKLAHVKGVKTLFFCCERLPGGQGFDLHIRPVQGELNGDKAHDAAVFNRNAEYWIRRFPTQYLFMYNRYKMP, MGSDKIHHHHHHMFRVVICDDEKIQRSILKEFTEKLLSERCLNYQILEFSCGEDLISKYPEKIDIIFLDIQMKDINGIEVAKKIRKFDEKVEIIFTTAFSEYAPQGYEVRAYRYLVKPIEYSNFAMGVNLCIDNLQRKKERYIVLNSKKGFNRILIDSILYVETVKRDLVVHTIGRDYKANMSMKQAEKLLCENGFFRCHTSFIVNLRRIEDLRDNMITINEQFIPISKYRLKDLKVALTSLLCDIMY, MGSDKIHHHHHHMFTQDESYIKWKLFLEGDDQAYSWIYTHYIQVLYNYGLQITPDSEIVKDCIQDVFVKIYKAKKKLTVPQNPKVYLMIALKNNIYNTFNQERLQKNYAFSLYQTEEQLTVKNEFIDQEARHEEMNNIKRMMKILTPRQREVIYYRFIEELSYDDICQIMGLNYQSAYNLLQRSLQKIREAYGVTGIWMLILHQLTYLH, MGSDKIHHHHHHMFTTQIHLKVLAMMLLCGLLNACSQTPQQCSSAIITTWSSAHSQITQDITTLSSTEFQGRKTDSEGARLTQAYLITRFTEMGLQPWQPNFAVPFSFQHQFSTVSGVNIIATIAAKTRSNRWRVITAHYDHLGQTANKMYPGADDNASGIAGMMAIAAQWQENPPLDDVNLMIVATDAEEPGLYGSYALVTLLQQYPLMDIELSVNLDMIGHPDRRRAIYMEGQKNLSNFESIKPLLMQQTQLCIRTHHTNLLSGRMKKSDWLRASDHYPFHKAGYSWVYFGVPPHAQYHTADDTIATLDIDFIVAVAETVYQMLSIDKLTKAP, MGSDKIHHHHHHMFVIWSHRTGFIMSHQLTFADSEFSSKRRQTRKEIFLSRMEQILPWQNMVEVIEPFYPKAGNGRRPYPLETMLRIHCMQHWYNLSDGAMEDALYEIASMRLFARLSLDSALPDRTTIMNFRHLLEQHQLARQLFKTINRWLAEAGVMMTQGTLVDATIIEAPSSTKNKEQQRDPEMHQTKKGNQWHFGMKAHIGVDAKSGLTHSLVTTAANEHDLNQLGNLLHGEEQFVSADAGYQGAPQREELAEVDVDWLIAERPGKVRTLKQHPRKNKTAINIEYMKASIRARVEHPFRIIKRQFGFVKARYKGLLKNDNQLAMLFTLANLFRADQMIRQWERSH, MGSDKIHHHHHHMGEAIVITSGKGGVGKTTTSANLGTALAILGKRVCLVDTDIGLRNLDVVMGLENRIIYDLVDVVEGRCKMHQALVKDKRFDDLLYLMPAAQTSDKTAVAPEQIKNMVQELKQEFDYVIIDCPAGIEQGYKNAVSGADKAIVVTTPEISAVRDADRIIGLLEQEENIEPPRLVVNRIRNHLMKNGDTMDIDEIVQHLSIDLLGIVADDDEVIKASNHGEPIAMDPKNRASIAYRNIARRILGESVPLQVLEEQNKGMMAKIKSFFGVRS, MGSDKIHHHHHHMGEMVELKKELLRDVDLAERLLGRERPVKSEIEIRGKITRSTIEEISRIKKEPEWMKRLRLRSLELFYKLPTPKWLVGIDVIDLDEMIVYSKPETERASSWEELPKEIREFYERLGLPEIEARFLSGLSAVFDSETVYARVKKYLEEKGVIVMPIEEAVQKYPDLVKRYFMRVFPPSDHKFAALHGALWSGGTFIYVPRGVKIREPIESFFLIGKSGEGQFEHSLIVADEGAYVEWIEGCSAPRLTKFSFHDGMVEAYAHRNATIKIITVQNWSKDVINLNNKRAIAEEGARVDWVEGSIGSKMTFVYPSTILKGDNSSSRSAVVTIAKGPYLKDSGSKMIHVGRNTRSQVINKTISADGGINVYRGIIRIVKGARNAVANVECESLILDDKSKAHTYPHNQVDEPTASVNHEATTGRLTEPQLFYLTSRGLTEEEAKSLIVLGFLEDVLKELPFEYANVLTKVVRLEFSEYGAFG, MGSDKIHHHHHHMGGLQNVRSAALIGHNGSGKSLLLAQILYKSGLIDKADTKYVDYDPVEEEKGASFSSHVASLEWKGKKVYLIDTPGFSDFISEVINGIFVSENIISVVNAVAGVEIQTERTWNMADEMKKPIIVFVNQMDKERANFENVVAELKERFSRKIVPVVVPIGAAENFEGVVDLLKKKAYRYDGDKVQEEDMPESFNDMRSEILEDIVEQDEELMMRYLDGEDIGYDELMRVLKEGYKKGEIVPVLSGSALKGIGLDLLLDYLGDIGVSPEEAPSYKALLEDGTEIEVKFSEEEPFCAYIFKSVVDQFVGRITFAKVIAGVLRPGDTVVNVQKDVTEKVGHVYVPILKQQKEVESAGPGEIVVLLKLKEGAVGETLAHRDRRVKIVPPAFPEPMFSRSVHPKSKSDIDKISSGLSRLSDSDPTFVWEYDPETGETVVSGLGAMHLDVMIERLKKIFGVDVEVGKPKIAYRETITTTAVAEHKHKKQTGGHGQYGHVKIQLEPLPRGQGYEFVDKIVGGVIPRNFIPSVDKGIREAMKKGVLAGYPVTDVRVILFDGSYHEVDSSDISFQIAAIQAFKKGMEAAKPVILEPIMEVEVFVPEENAGDVMGEISSRRGRPLGMEPSGKGMVKVKAEVPLAEMLDFSSKLSSITSGRGYFTMRFQRYEIVPPNIQEKIIEERRREMQEQEK, MGSDKIHHHHHHMGILVVGSVAFDSVETPFGRVENVLGGSATYFSTSASFFTDVSLVAVVGEDFPQEHVEFLNSRNIDLRGLAREGGKTFHWKGKYGYDLNEAQTLETHLNVFESFRPQIPAAYRDAEFLFLANIDPELQMEVLSQVEKPRVIACDTMNFWISSKPEALKAVIAKVDIFIINEGEARQFTQEANLTKAARKILAMGVKTLVIKRGEYGVLMFTDHSVFAAPAFPLEDVFDPTGAGDTFAGGFMGYLANTGDTSETGIRQAIIFGSVMASFNVEDFSLNRLKRLEYREIEDRYRSFKALTHFEGLAGG, MGSDKIHHHHHHMGKGTNPTIGIALGSGAAKGWAHIGVLNGLAAMGIKPDKVAGCSVGALVGAAYAHNHLAELEEWVRSFSSWDVLGLMDIRWRKGGLIGGEKVFDVLQSRIGDVNIEDLEYPFAAIATDLYSGQEIWFRHGDLRQAVRASCSMPGILAPVRQGERWLVDGAVVNPVPVSVSRAMGVDIVIAVDLHGFHSGRLQVLPVNMTSHRATKEDTEMPARQETGFMDLFARGREYVSNLTDKFSLGTKSNPGMIAVMSQSMGILEQRHKRARLMGDPPDICIVPEVANIGTMEFHRADEAIAAGEAAVAKVAHLIEAAIWKD, MGSDKIHHHHHHMGKVTIEPLSRLEGHGKVSITLDDAGKPTDVKLHITALRGFEQFVVGRPAEEVPRIVPRICGICQTPHHLASVKAVDAAWGAEVPSAAEKLRELMHLGNMMHSHALHFYYLAAPDFVLGPDSDPAARNIIGVIGAAPEVAKKAIAMRRVGQSIVETIGGRAIHPVTGVPGGVSKALSEEKRDELLNEIDEMIAYGQDGIALIKSLNEKYMDLAKTLGVIDTWYLGMVKDGKHNFYGDTLRFMSPDGKQTTDFKPSEYLDNIGEHVVGHNYVKYPYNKKVGYPDGLYRVGPLAMLNVCDSMPTPLAEEARKDFADTFGKPANQSLAYNHARLIELLASCERVKELLEDSEITSTDIKAEVEPKAGNGVGAIYAPRGTLFHNYETDDKGIVVKANMIVASTHNVPTMEKAIQQAAEVVFK, MGSDKIHHHHHHMGKVYVIGNFKGGVGKTKTVTMLAYESALQLGRKTLVIDLDPQGNATRVLAKTGDLAEITYTVTEAFQEGSLEPAITNISENLDLIPANTAFRNLTKILMTKFPSNEFDQINYLNTLLKPLKEKYDAIYIDVPPTISDFSDNAMLAADYCIIVLQTQELSLDGAQTYIAYMQYLADTYDNDLQVLGIIPCMLRPGGRVDNKVLEQAKELYGGNVLNTVVKYQERLKVYDVEGIKISHNYTGKADGWDVKAHKVFIDVLNELDQHQLVLEELEG, MGSDKIHHHHHHMGNCQILSSGDKIKLIRKKYGLRQDDIVGEEVTRNLISQIEHNKAKLTKSTAEIIIKNLKEIAKKNNLEMDVTADYLLEDELAQANSILENYVDELKNLLVYKCSRFYESLKSAEEFLIQWDIKEKKVQIYELAGDYFYIQNDLAKSVLYYEKAFDILDKTSYNKSLLSILRKLSLMYLNSLKYDRSIECCNFALNHFKNMPDDYISIFLFNTALCYYYMHYYEKALEVIDNLEPLIKDNTSKLIDVLNNKACCLSDLNRIDEAAEIYLRIFNLLNTNNIKSSQYLLILSNLIDTFAKKDVKDEVIKYLNLLLDRFPTSSQDDSYLSVACFNAAKAFIYLGDLQKAEEYLLKALTLSKNHNKYSLQEKTLSLLTDLYIQLNDFEKLEEINLEAVVLSNSQQKVCTNIFYKLLKFLNQNNKTEDIDKILNFLIKFK, MGSDKIHHHHHHMGNRTRTIAGKDITRSVADALQYISYYHPPDYIRSLSQAYAREQSPAAKNAIGQILLNSRMAAFGRRPICQDTGLVVVFAKVGMETRIKSTISFADLVNEGVRQAYLDPDNPLRASIVADPLAGRVNTRDNTPAVVHVDLVQGNQIEITIAAKGGGSENKARFTTLNPSASVSDWVIDTVSTLGSGWCPPGLISVGIGGSAEKAMLLAKEAMNKPIDMSELIARGPSSAEEALRIELYERINALGIGAQGLGGLTTVVDVKVATYPTHAASKPVALIPQCAANRHLKFTLDGSGPIRVQPPDLCEWPDIGTDELSPAGVRRVNLDALTKEETASWRCGETLLLSGKMLTGRDAAHKRMVELIDAGKPLPFDLQGRVIYYVGPVRAVRDEVVGPAGPTTSSRLDDFTDKVLAETGLFAMVGKAERGRAAIESIVRHKTPYLIAVGGAAYLISKSIKSARLIAFEDLGMEAVYEFEVQDMPVIMAVDVDGNSIHNSGPLEWRKRMAADSIARNIGV, MGSDKIHHHHHHMGRRGLMTETTYYVNGTEVYVAEIPSNQSTETFFLIHGFVSSTYSYRKLMPLLAKRGRVISVDLPGFGRSGKGRTFTYSFQCYAELMVALMRKLNVSKVTFVGHSMGGQVALYVAKWKPHLVKRLVLLSSSGYLQRVKRPFYFLSYIPFLRQMVKWYVQRQDVTKALQQVVYNKGIVNNEAVEMYRLPLADETFYDALLCLMRQREGDLPKEELRKIHHPVLLLWGEQDRVIPVKIGQRLASDLPNASLIVYKNTGHLLPEERPKEIMKAIDRFIRKRRQFSFFS, MGSDKIHHHHHHMGSLAVIDAPGWYETIRMADGVTLIHEPWIKPFFRCNIWHVRGRDRDLLFDTGLGHFSLRTHVPLVTERKLTCVASHTHFDHIGCHHEFPDRGVHPAEAKILADPRNEWTVADRYATDDMFDGLPQGWESSRYRILPAPADRLLDHGDVVDLGDRAFEVIHTPGHSPGGIALYEKKTGILLSGDIIYDGPLIDDVYHSDIPDYMATLLAMRELDVSVVHGGHFPSFGKVRYRQLIDEYLAQKRRAGCHLRQRP
